Measurements as given in US20240392004A1 (IMMUNOWAKE, published 2024).
Numbering of substitutions follows the chain as printed. Numbers in names are those of the source. Like-named read-outs stand apart in the source and are kept apart here.

B1: IL-12(E59A/F60A)/anti-PD-1(N99A) (antibody)
light: not shown
heavy: not shown
heavy (part 1 of 2): QVQLVESGGGVVQPGRSLRLDCKASGITFSNSGMHWVRQAPGKGLEWVAVIWYDGSKRYYADSVKGRFTISRDNSKNTLFLQMNSLRAEDTAVYYCATADDYWGQGTLVTVSSAS
heavy (part 2 of 2): EPKSCDKTHTCPPCPAPEKKGGPSVFLFPPKPKDTLMISRTPEVTCVVVDVSHEDPEVKFNWYVDGVEVHNAKTKPREEQYNSTYRVVSVLTVLHQDWLNGKEYKCKVSNKALPAPIEKTISKAKGQPREPQVYVLPPSREEMTKNQVSLLCLVKGFYPSDIAVEWESNGQPENRYMTWPPVLDSDGSFFLYSKLTVDKSRWQQGNVFSCSVMHEALHNHYTQKSLSLSPGK
B2: IL-12(E59A/F60A)/anti-PD-1(N99M) (antibody)
light: not shown
heavy: not shown
heavy (part 1 of 2): B1 heavy (part 1 of 2) with A99M
heavy (part 2 of 2): B1 heavy (part 2 of 2)
B3: IL-2(L18R/Q22E/R38D/K43E/E61R)/CD155-Fc/IL-12(E59A/F60A) (Fc fusion)
chain 1: WPPPGTGDVVVQAPTQVPGFLGDSVTLPCYLQVPNMEVTHVSQLTWARHGESGSMAVFHQTQGPSYSESKRLEFVAARLGAELRNASLRMFGLRVEDEGNYTCLFVTFPQGSRSVDIWLRVLAKPQNTAEVQKVQLTGEPVPMARCVSTGGRPPAQITWHSDLGGMPNTSQVPGFLSGTVTVTSLWILVPSSQVDGKNVTCKVEHESFEKPQLLTVNLTVYYPPEVSISGYDNNWYLGQNEATLTCDARSNPEPTGYNWSTTMGPLPPFAVAQGAQLLIRPVDKPINTTLICNVTNALGARQAELTVQVKEGPPSEHSGISRNGGGGSGGGDKTHTCPPCPAPEDEGGPSVFLFPPKPKDTLMISRTPEVTCVVVDVSHEDPEVKFNWYVDGVEVHNAKTKPREEQYNSTYRVVSVLTVLHQDWLNGKEYKCKVSNKALPAPIEKTISKAKGQPREPQVYVYPPSREEMTKNQVSLTCLVKGFYPSDIAVEWESNGQPENNYKTTPPVLDEDGSFALVSKLTVDKSRWQQGNVFSCSVMHEALHNHYTQKSLSLSPGKGGGGSGGGIWELKKDVYVVELDWYPDAPGEMVVLTCDTPEEDGITWTLDQSSEVLGSGKTLTIQVKAAGDAGQYTCHKGGEVLSHSLLLLHKKEDGIWSTDILKDQKEPKNKTFLRCEAKNYSGRFTCWWLTTISTDLTFSVKSSRGSSDPQGVTCGAATLSAERVRGDNKEYEYSVECQEDSACPAAEESLPIEVMVDAVHKLKYENYTSSFFIRDIIKPDPPKNLQLKPLKNSRQVEVSWEYPDTWSTPHSYFSLTFCVQVQGKSKREKKDRVFTDKTSATVICRKNASISVRAQDRYYSSSWSEWASVPCSGGGGSGGGSGGGGSRNLPVATPDPGMFPCLHHSQNLLRAVSNMLQKARQTLEFYPCTSEEIDHEDITKDKTSTVEACLPLELTKNESCLNSRETSFITNGSCLASRKTSFMMALCLSSIYEDLKMYQVEFKTMNAKLLMDPKRQIFLDQNMLAVIDELMQALNFNSETVPQKSSLEEPDFYKTKIKLCILLHAFRIRAVTIDRVMSYLNAS
chain 2: WPPPGTGDVVVQAPTQVPGFLGDSVTLPCYLQVPNMEVTHVSQLTWARHGESGSMAVFHQTQGPSYSESKRLEFVAARLGAELRNASLRMFGLRVEDEGNYTCLFVTFPQGSRSVDIWLRVLAKPQNTAEVQKVQLTGEPVPMARCVSTGGRPPAQITWHSDLGGMPNTSQVPGFLSGTVTVTSLWILVPSSQVDGKNVTCKVEHESFEKPQLLTVNLTVYYPPEVSISGYDNNWYLGQNEATLTCDARSNPEPTGYNWSTTMGPLPPFAVAQGAQLLIRPVDKPINTTLICNVTNALGARQAELTVQVKEGPPSEHSGISRNGGGSGAPTSSSTKKTQLQLEHLRLDLEMILNGINNYKNPKLTDMLTFEFYMPKKATELKHLQCLERELKPLEEVLNLAQSKNFHLRPRDLISNINVIVLELKGSETTFMCEYADETATIVEFLNRWITFCQSIISTLTGGGGSGGGDKTHTCPPCPAPEKKGGPSVFLFPPKPKDTLMISRTPEVTCVVVDVSHEDPEVKFNWYVDGVEVHNAKTKPREEQYNSTYRVVSVLTVLHQDWLNGKEYKCKVSNKALPAPIEKTISKAKGQPREPQVYVLPPSREEMTKNQVSLLCLVKGFYPSDIAVEWESNGQPENRYMTWPPVLDSDGSFFLYSKLTVDKSRWQQGNVFSCSVMHEALHNHYTQKSLSLSPGK
B4: IL-2(L18R/Q22E/R38D/K43E/E61R/Q126T/S130R)/CD155-Fc/IL-12(E59A/F60A) (Fc fusion)
chain 1: B3 chain 1
chain 2: B3 chain 2 with Q454T, S458R
B5: IL-2(L18R/Q22E/R38D/K43E/E61R/Q126T)/CD155-Fc/IL-12(E59A/F60A) (Fc fusion)
chain 1: B3 chain 1
chain 2: B3 chain 2 with Q454T
B6: IL-2(R38D/K43E/E61R/Q126T)/CD155-Fc/IL-12(E59A/F60A) (Fc fusion)
chain 1: B3 chain 1
chain 2: B3 chain 2 with R346L, E350Q, Q454T
B7: IL-2(R38D/K43E/E61R)/PD-L1(mut2)-Fc (Fc fusion)
chain 1: FTVTVPKDLYVVEYGSNMTIECKFPVEKQLDLAALQVYWMMEDKNIIQFVHGEEDLKVQHSSYRQRARLLKDQLSLGNAALQITDVKLQDAGVYTCLIAYKGADYKRITVKVNAPYNKINQRILVVDPVTSEHELTCQAEGYPKAEVIWTSSDHQVLSGKTTTTNSKREEKLFNVTSTLRINTTTNEIFYCTFRRLDPEENHTAELVIPELPLAHPPNERGGGGSGGGDKTHTCPPCPAPEDEGGPSVFLFPPKPKDTLMISRTPEVTCVVVDVSHEDPEVKFNWYVDGVEVHNAKTKPREEQYNSTYRVVSVLTVLHQDWLNGKEYKCKVSNKALPAPIEKTISKAKGQPREPQVYVYPPSREEMTKNQVSLTCLVKGFYPSDIAVEWESNGQPENNYKTTPPVLDEDGSFALVSKLTVDKSRWQQGNVFSCSVMHEALHNHYTQKSLSLSPGK
chain 2: FTVTVPKDLYVVEYGSNMTIECKFPVEKQLDLAALQVYWMMEDKNIIQFVHGEEDLKVQHSSYRQRARLLKDQLSLGNAALQITDVKLQDAGVYTCLIAYKGADYKRITVKVNAPYNKINQRILVVDPVTSEHELTCQAEGYPKAEVIWTSSDHQVLSGKTTTTNSKREEKLFNVTSTLRINTTTNEIFYCTFRRLDPEENHTAELVIPELPLAHPPNERGGGSGAPTSSSTKKTQLQLEHLLLDLQMILNGINNYKNPKLTDMLTFEFYMPKKATELKHLQCLERELKPLEEVLNLAQSKNFHLRPRDLISNINVIVLELKGSETTFMCEYADETATIVEFLNRWITFCQSIISTLTGGGGSGGGDKTHTCPPCPAPEKKGGPSVFLFPPKPKDTLMISRTPEVTCVVVDVSHEDPEVKFNWYVDGVEVHNAKTKPREEQYNSTYRVVSVLTVLHQDWLNGKEYKCKVSNKALPAPIEKTISKAKGQPREPQVYVLPPSREEMTKNQVSLLCLVKGFYPSDIAVEWESNGQPENRYMTWPPVLDSDGSFFLYSKLTVDKSRWQQGNVFSCSVMHEALHNHYTQKSLSLSPGK
B8: IL-2(R38D/K43E/E61R/Q126T)/PD-L1(mut2)-Fc (Fc fusion)
chain 1: B7 chain 1
chain 2: B7 chain 2 with Q351T
B9: IL-2(L18R/Q22E/R38D/K43E/E61R)/PD-L1(mut2)-Fc (Fc fusion)
chain 1: B7 chain 1
chain 2: B7 chain 2 with L243R, Q247E

Key:
Test in all cases: cell-based or functional assay
[1] = molecular target: T1, human PD-1 on cells (HEK-PD-1 reporter cells; activated PBMC) (human, UniProt Q15116 25-288)
T1 sequence (Q15116 25-288): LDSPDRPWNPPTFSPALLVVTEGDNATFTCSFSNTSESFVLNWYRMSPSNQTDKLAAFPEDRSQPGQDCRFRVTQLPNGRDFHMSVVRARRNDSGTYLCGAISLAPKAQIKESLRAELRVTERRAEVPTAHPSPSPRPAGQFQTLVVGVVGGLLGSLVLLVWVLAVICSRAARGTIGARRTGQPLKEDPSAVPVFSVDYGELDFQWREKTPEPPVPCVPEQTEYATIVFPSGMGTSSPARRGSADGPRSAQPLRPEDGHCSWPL

[2] = molecular target: T2, human IL-12 receptor complex (IL-12Rβ1 and IL-12Rβ2) (human, UniProt P42701 24-662; Q99665 24-862)
T2 sequence (Q99665 24-862, chain 2 of 2, other chains not shown): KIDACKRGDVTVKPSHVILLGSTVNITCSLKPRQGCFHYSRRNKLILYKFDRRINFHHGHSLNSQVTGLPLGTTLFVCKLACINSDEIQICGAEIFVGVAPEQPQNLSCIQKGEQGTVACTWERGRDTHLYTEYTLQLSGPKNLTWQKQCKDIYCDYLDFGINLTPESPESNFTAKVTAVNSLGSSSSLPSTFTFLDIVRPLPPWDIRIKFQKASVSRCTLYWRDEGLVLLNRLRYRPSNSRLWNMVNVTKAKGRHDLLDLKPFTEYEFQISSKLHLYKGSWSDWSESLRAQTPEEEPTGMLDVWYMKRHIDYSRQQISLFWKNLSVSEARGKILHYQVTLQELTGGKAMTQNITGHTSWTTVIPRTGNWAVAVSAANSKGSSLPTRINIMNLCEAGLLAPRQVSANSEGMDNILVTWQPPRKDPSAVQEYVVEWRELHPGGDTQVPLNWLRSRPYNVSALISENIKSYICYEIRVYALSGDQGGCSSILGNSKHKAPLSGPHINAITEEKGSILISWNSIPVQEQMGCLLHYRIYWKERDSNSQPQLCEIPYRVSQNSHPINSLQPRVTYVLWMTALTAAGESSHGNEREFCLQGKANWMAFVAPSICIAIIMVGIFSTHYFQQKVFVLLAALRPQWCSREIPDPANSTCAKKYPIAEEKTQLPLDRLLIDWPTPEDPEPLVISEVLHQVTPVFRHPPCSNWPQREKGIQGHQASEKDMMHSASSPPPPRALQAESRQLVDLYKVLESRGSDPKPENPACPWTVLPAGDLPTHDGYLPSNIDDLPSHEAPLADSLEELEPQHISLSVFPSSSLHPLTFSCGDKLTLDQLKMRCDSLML

[3] = molecular target: T2, human IL-12 receptor complex (IL-12Rβ1 …); remark: listed apart in the source
[4] = molecular target: T3, human IL-2 receptor (IL-2Rα, IL-2Rβ, IL-2Rγ) (human, UniProt P01589 22-272; P14784 27-551; P31785 23-369)
T3 sequence (looked up) 1: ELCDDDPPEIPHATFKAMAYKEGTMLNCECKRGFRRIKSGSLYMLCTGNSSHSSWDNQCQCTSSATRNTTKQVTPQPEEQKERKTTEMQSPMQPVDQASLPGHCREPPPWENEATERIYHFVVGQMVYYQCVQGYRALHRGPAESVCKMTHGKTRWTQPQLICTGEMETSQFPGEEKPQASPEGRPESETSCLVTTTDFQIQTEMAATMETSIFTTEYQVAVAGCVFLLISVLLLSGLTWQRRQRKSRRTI
T3 sequence (looked up) 2: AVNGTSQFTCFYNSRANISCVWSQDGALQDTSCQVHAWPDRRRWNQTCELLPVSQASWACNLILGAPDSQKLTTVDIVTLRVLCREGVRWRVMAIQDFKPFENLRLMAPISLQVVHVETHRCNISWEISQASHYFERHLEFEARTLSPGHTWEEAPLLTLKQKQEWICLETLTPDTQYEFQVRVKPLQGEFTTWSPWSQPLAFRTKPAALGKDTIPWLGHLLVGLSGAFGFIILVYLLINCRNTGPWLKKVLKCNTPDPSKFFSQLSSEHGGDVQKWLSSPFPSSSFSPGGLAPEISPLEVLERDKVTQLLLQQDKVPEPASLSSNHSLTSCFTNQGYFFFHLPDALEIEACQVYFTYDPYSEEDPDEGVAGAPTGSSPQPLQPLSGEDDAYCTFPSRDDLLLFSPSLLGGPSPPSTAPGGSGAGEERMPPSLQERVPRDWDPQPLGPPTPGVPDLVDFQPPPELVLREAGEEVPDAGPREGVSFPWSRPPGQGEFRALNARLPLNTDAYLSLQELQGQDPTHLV
T3 sequence (looked up) 3: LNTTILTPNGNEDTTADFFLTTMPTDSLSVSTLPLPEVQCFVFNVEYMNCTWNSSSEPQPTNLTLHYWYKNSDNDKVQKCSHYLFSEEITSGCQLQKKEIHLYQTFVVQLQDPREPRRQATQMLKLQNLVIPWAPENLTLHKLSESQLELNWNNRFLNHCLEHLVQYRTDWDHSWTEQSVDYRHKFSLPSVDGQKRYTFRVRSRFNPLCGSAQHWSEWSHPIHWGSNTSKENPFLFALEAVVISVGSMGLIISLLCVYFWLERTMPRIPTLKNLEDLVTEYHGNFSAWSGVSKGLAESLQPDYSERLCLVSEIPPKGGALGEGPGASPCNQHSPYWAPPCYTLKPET

[5] = molecular target: T4, human TIGIT on HEK-Blue reporter cells (human, UniProt Q495A1 22-244)
T4 sequence (looked up): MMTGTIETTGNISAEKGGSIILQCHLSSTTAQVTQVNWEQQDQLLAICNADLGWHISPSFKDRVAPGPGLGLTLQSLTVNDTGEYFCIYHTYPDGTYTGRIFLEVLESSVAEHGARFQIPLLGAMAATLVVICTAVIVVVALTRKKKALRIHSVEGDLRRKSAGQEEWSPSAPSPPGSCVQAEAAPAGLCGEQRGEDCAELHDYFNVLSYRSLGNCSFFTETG

[6] = molecular target: T1, human PD-1 on cells (HEK-PD-1 reporter …); remark: listed apart in the source
[7] = molecular target: T3, human IL-2 receptor (IL-2Rα, IL-2Rβ, …); remark: listed apart in the source

| IL-12 signal transduction, HEK-IL-12 [3] [%] | IL-2 signal transduction, HEK-IL-2 [4] [%] | IL-2 signal transduction, HEK-IL-2-TIGIT [5] [%] | IL-12 signal transduction, HEK-IL-12-TIGIT [5] [%] | IL-2 signal transduction, HEK-IL-2-PD-1 [6] [%] | IL-2 signal transduction, HEK-IL-2 [7] [%] | further results | Binder |
| --- | --- | --- | --- | --- | --- | --- | --- |
|  |  |  |  |  |  | IFN-γ release, activated PBMC [1]: 12 ng/mL; IL-12 signal transduction, HEK-IL-12-PD-1 (high) [1]: 3%; IL-12 signal transduction, HEK-IL-12-PD-1 (low) [1]: < 0.2%; IL-12 signal transduction, HEK IL-12 [2]: < 0.2% | B1 |
|  |  |  |  |  |  | IFN-γ release, activated PBMC [1]: 13 ng/mL; IL-12 signal transduction, HEK-IL-12-PD-1 (high) [1]: < 0.2%; IL-12 signal transduction, HEK-IL-12-PD-1 (low) [1]: < 0.2%; IL-12 signal transduction, HEK IL-12 [2]: < 0.2% | B2 |
| 1 | 15 | 81 | 42 |  |  |  | B3 |
| 3 | < 0.1 | < 0.1 | 24 |  |  |  | B4 |
| < 0.2 | 5 | 18 | 29 |  |  |  | B5 |
| 2 | 3 | 28 | 32 |  |  |  | B6 |
|  |  |  |  | 76 | 16 |  | B7 |
|  |  |  |  | 20 | 2 |  | B8 |
|  |  |  |  | 35 | 4 |  | B9 |
